These results are taken from patent US20120141464A1 (ZENYTH OPERATIONS, published 2012).

B1: Antibody 6 (as listed; germlining state in the experiment not stated) (antibody, V domains shown)
VH: QVQLVQSGAEVKKPGASVKVSCKVSGYTLTELSIHWVRQAPGKGLEWMGGFDPEENEIVYAQRFQGRVTMTEDTSTDTAYMELSSLRSEDTAVYYCAIVGSFSPLTLGLWGQGTMVTVSS
VL: QSVLTQPPSVSGAPGQRVTISCTGSGSNIGAPYDVSWYQQLPGTAPKLLIYHNNKRPSGVPDRFSGSKSGTSASLAITGLQAEDEADYYCATVEAGLSGSVFGGGTKLTVL
B2: Antibody 3 (28G5), parent antibody (antibody, V domains shown)
VH: QVQLVQSGAEVKKPGASVKVSCKISGHSLSELSIHWVRQTPTKGFEWMGGFDPEENEIVYAQRFQGRVTMTEDTSIDTAYLTLSSLRSDDTAVYYCSIVGSFSGWAFDYWGKGTMVTVSS
VL: QAVLTQPSSVSGAPGQRVTISCTGSGSNIGAPYDVSWYQQLPGTAPKLLIYHNNKRPSGVPDRFSASKSGTSASLAITGLQADDEADYYCQSYDSSLSGSVFGGGTKVTVL
B3: Antibody 2 (antibody, V domains shown)
VH: B2 VH with W105P, F107L, D108R, Y109P
VL: B2 VL
notes: also called Antibody 02; Ab2
B4: Antibody 6, non-germlined IgG4 (antibody, V domains shown)
VH: B2 VH with G104P, W105L, A106T, F107L, D108G, Y109L
VL: B1 VL with S2A, P8S, G66A, E83D
B5: Antibody 19 (antibody, V domains shown)
VH: B2 VH with S97A, F102V, G104R, W105I, A106T, F107Y, D108G, Y109F
VL: B2 VL with S96R, L97N, S98P, G99H, S100V, V101I, V108L
notes: also called Ab19
B6: Antibody 17 (antibody, V domains shown)
VH: B2 VH with G104P, W105L, A106T, F107M, D108G, Y109L
VL: B2 VL with Q91A, S92T, Y93V, D94E, S95D, S96G
notes: also called Ab17
B7: Antibody 4 (antibody, V domains shown)
VH: B2 VH with S97A, G104P, W105P, A106T, F107Y, D108G
VL: B2 VL
notes: also called Antibody 04; Ab4
B8: Antibody 8 (antibody, V domains shown)
VH: B2 VH with S97A, G104P, W105P, F107Y, D108R, Y109P
VL: B2 VL
notes: also called Antibody 08; Ab8
B9: Antibody 14 (antibody, V domains shown)
VH: B2 VH with V99L, F102V, S103T, G104A
VL: B2 VL with S96E, L97D, S98R, G99M, S100T, V101E
notes: also called Ab14
B10: Antibody 16 (antibody, V domains shown)
VH: B2 VH with G104P, W105L, A106T, F107M, D108G, Y109L
VL: B2 VL with D83E, Q91A, S92T, Y93S, S95E, S96I
notes: also called Ab16
B11: Antibody 12 (antibody, V domains shown)
VH: B2 VH
VL: B2 VL with S96E, L97P, S98T, G99E, S100I, V101R, V108L
notes: also called Ab12
B12: Antibody 7 (antibody, V domains shown)
VH: B2 VH with S97A, W105P, A106V, F107Y, D108G, Y109L
VL: B2 VL
notes: also called Antibody 07; Ab7
B13: Antibody 5 (antibody, V domains shown)
VH: B2 VH with S97A, W105Y, A106P, F107Y, D108R, Y109P, K112Q
VL: B2 VL
notes: also called Antibody 05; Ab5
B14: Antibody 20 (antibody, V domains shown)
VH: B2 VH with G104P, W105L, A106T, F107L, D108G, Y109L
VL: B2 VL with Q91A, S92T, Y93V, S95E, S96A
notes: also called Ab20
B15: Antibody 10 (antibody, V domains shown)
VH: B2 VH with S97A, W105L, F107Y, D108R, Y109P, V118I
VL: B2 VL
notes: also called Ab10
B16: Antibody 15 (antibody, V domains shown)
VH: B2 VH with V99A, F102I, S103P
VL: B2 VL with S96Q, S98I, G99S, S100A, V101A
notes: also called Ab15
B17: Antibody 9 (antibody, V domains shown)
VH: B2 VH with S97A, G104P, W105V, A106T, F107Y, D108G, Y109L, K112Q
VL: B2 VL
B18: Antibody 11 (antibody, V domains shown)
VH: B2 VH with G15E, S25P, S97A, G104P, W105I, A106T, F107Y, D108G, Y109L
VL: B2 VL with A13V

Changes are numbered by the printed parent chain.

In one assay the target is T1, human GM-CSFRα (human, UniProt P15509 23-400).
T1 sequence: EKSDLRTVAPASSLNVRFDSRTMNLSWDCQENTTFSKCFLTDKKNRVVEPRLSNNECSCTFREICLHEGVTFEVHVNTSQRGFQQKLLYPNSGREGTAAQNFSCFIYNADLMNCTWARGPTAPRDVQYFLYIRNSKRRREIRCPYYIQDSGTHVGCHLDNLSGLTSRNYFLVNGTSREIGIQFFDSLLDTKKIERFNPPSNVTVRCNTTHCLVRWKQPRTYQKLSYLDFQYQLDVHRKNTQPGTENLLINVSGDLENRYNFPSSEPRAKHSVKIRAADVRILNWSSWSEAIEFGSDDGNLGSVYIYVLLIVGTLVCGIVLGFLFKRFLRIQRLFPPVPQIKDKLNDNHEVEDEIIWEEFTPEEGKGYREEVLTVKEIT
Briefly: cell-based or functional assay.
For the molecule B1, the “IC50, colony formation assay (10 ng/ml human GM-CSF)” value is around 0.08 µg/mL.

The next assay deals with cynomolgus GM-CSFRα (cynomolgus). Put plainly: cell-based or functional assay.
Regarding B1, the “IC50, cynomolgus granulocyte shape change assay (7 pM human GM-CSF)” value was 1.73 pM.

For B2, the “IC50, cynomolgus granulocyte shape change assay” value was around 5 nM.

Consider B3, for which the “IC50, cynomolgus granulocyte shape change assay (7 pM human GM-CSF)” value turned out to be 3.2 pM.

The next assay has as its target T1, human GM-CSFRα. Briefly: cell-based or functional assay. The source holds these as a separate data set.
Regarding B4, the “IC50, TF-1 proliferation assay (7 pM human GM-CSF)” value (“IC50, TF-1 proliferation assay” below) worked out at 0.97 pM.

With B5, the “IC50, TF-1 proliferation assay” value was 23.8 pM.

On to B6, for which the “IC50, TF-1 proliferation assay” value worked out at 14.3 pM.

Take B7: the “IC50, TF-1 proliferation assay” value is 48 pM.

For B3, the “IC50, TF-1 proliferation assay” value stood at 15 pM.

In the case of B8, the “IC50, TF-1 proliferation assay” value turned out to be 34.5 pM.

For B9, the “IC50, TF-1 proliferation assay” value came to 16.3 pM.

Turning to B10, the “IC50, TF-1 proliferation assay” value stood at 12.8 pM.

Consider B11, for which the “IC50, TF-1 proliferation assay” value came out at 246 pM.

In the case of B12, the “IC50, TF-1 proliferation assay” value was determined as 93.8 pM.

As to B13, the “IC50, TF-1 proliferation assay” value was found to be 9.3 pM.

With B14, the “IC50, TF-1 proliferation assay” value is 9.8 pM.

Consider B15, for which the “IC50, TF-1 proliferation assay” value stood at 55.3 pM.

For B16, the “IC50, TF-1 proliferation assay” value came out at 164 pM.

Consider B17, for which the “IC50, TF-1 proliferation assay” value was determined as 40.8 pM.

For the molecule B18, the “IC50, TF-1 proliferation assay” value came out at 9 pM.

A further assay addresses T1, human GM-CSFRα. Put plainly: cell-based or functional assay. The source holds these as a separate data set.
On to B4, for which the “IC50, human granulocyte shape change assay (7 pM human GM-CSF)” value is 13.3 pM.

With B3, the “IC50, human granulocyte shape change assay (7 pM human GM-CSF)” value was 20.7 pM.

As to B10, the “IC50, human granulocyte shape change assay (7 pM human GM-CSF)” value came to 16 pM.

As to B13, the “IC50, human granulocyte shape change assay (7 pM human GM-CSF)” value was 30 pM.

In the case of B14, the “IC50, human granulocyte shape change assay (7 pM human GM-CSF)” value was found to be 7.8 pM.

Turning to B15, the “IC50, human granulocyte shape change assay (7 pM human GM-CSF)” value was 62 pM.

Turning to B17, the “IC50, human granulocyte shape change assay (7 pM human GM-CSF)” value is 44 pM.

With B18, the “IC50, human granulocyte shape change assay (7 pM human GM-CSF)” value was 90 pM.

The target of a further assay is T1, human GM-CSFRα. Put plainly: cell-based or functional assay. This is another data set of the same source.
B4: the “IC50, monocyte TNFα release assay (1 nM human GM-CSF)” value (“IC50, monocyte TNFα release assay” for short) was determined as 0.043 nM.

Take B3: the “IC50, monocyte TNFα release assay” value stood at 0.103 nM.

As to B13, the “IC50, monocyte TNFα release assay” value stood at 0.067 nM.

Turning to B15, the “IC50, monocyte TNFα release assay” value was determined as 0.139 nM.

For B17, the “IC50, monocyte TNFα release assay” value was 0.074 nM.

A further assay has as its target T2, recombinant purification-tagged human GM-CSF receptor α extracellular domain (human, UniProt P15509 23-320).
T2 construct: Amino acids 1 to 298 of the mature receptor; also called purified GM-CSFRα extracellular domain; soluble extracellular domain of GM-CSFRα; not shown: N-terminal purification tag; Flag-tagged
T2 sequence: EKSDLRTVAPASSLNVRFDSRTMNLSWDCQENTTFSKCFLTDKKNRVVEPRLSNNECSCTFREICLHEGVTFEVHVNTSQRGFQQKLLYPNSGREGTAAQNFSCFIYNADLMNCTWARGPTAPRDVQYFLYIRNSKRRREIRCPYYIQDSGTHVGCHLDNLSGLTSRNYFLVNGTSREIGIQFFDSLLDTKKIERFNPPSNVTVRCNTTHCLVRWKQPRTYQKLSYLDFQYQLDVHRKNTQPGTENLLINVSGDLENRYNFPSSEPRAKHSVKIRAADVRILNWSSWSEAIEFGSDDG
Put plainly: SPR (BIAcore 2000); IgG4 captured on protein A, tagged receptor ECD as analyte; 1:1 Langmuir fit. (In general: SPR reads the build-up and loss of mass on a sensor chip optically.)
A word on the Kd: it is the equilibrium constant for the complex coming apart. In the case of B4, the dissociation constant Kd was found to be 0.139 nM.

Take B5: the Kd stood at 0.388 nM.

Consider B6, for which the Kd was determined as 0.193 nM.

B7: the Kd amounted to 4.07 nM.

For B3, the Kd amounted to 0.376 nM.

For the molecule B8, the dissociation constant Kd was found to be 0.552 nM.

In the case of B9, the dissociation constant Kd was determined as 0.502 nM.

Turning to B10, the Kd is 1.14 nM.

In the case of B11, the Kd was 3.02 nM.

In the case of B12, the dissociation constant Kd was determined as 3.93 nM.

B13: the Kd came to 0.847 nM.

With B14, the Kd was determined as 0.127 nM.

For the molecule B15, the dissociation constant (Kd) is 1.5 nM.

With B16, the Kd worked out at 1.03 nM.
